Among the data in paper PMC8637272 are Kd values, retold here.

This data set relates to enolase (ENO) (Mycoplasma gallisepticum S6). Put plainly: EMSA. The following applies: EMSA: 20 mM carbonate buffer pH 9.8, 6% glycerol, 2.5 pmol FAM-DNA, 10 min 37 C, 6% acrylamide gel at 10 C. AFM: 20 mM Tris-HCl pH 7.5 (Methods; Fig 6 legend …).

Where the note is “Hill n 3.1 +/- 0.6”, Peno yielded a Kd of 1000 nM.

Pgapd displayed a dissociation constant (Kd) (Hill n 2.7 +/- 0.8) of 1100 nM.
